Experimental data as given in US20250313644A1 (FUTUREGEN BIOPHARMACEUTICAL BEIJING, published 2025).
Positions count from the first letter of the chain named.

Assays:
human TL1A (HuTL1A) [1] = molecular target: T1, human TL1A (HuTL1A) (human, UniProt O95150 57-251, limits assumed, biotin-labelled in some assays (site not stated)); assay: cell-based or functional assay
T1 sequence: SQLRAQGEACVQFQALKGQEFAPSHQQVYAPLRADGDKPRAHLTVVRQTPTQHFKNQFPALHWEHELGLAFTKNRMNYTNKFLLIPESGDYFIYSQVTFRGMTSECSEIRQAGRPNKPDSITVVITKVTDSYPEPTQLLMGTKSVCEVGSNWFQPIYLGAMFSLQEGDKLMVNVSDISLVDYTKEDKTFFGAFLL

LIGHT [2] = molecular target: T2, LIGHT (UniProt O43557 74-240, limits assumed); assay: ELISA, coated LIGHT
T2 sequence (O43557 74-240 limits assumed): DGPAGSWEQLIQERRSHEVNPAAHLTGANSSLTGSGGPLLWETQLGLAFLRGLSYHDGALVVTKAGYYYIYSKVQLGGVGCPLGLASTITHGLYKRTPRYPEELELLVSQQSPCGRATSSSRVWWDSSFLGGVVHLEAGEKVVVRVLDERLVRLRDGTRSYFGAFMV
Protocol: (§1) In this experiment, ELISA was used to assess the binding ability of monoclonal antibodies to TL1A homologous molecules. Representative members of the TNF ligand superfamily, TNFα, LT-α, LIGHT and FASL, were selected for binding testing. 1 μg/mL of TNFα, LT-α, LIGHT or FASL was coated in a microplate with a carbonate buffer solution at pH=9.6, 100 μL per well, and the microplate was incubated at 4° C. overnight. The microplate was then washed 5 times with PBST, blocked with 300 μL/well of PBS containing 1% BSA, and was incubated at room temperature for 1 hour. After washing 5 times with PBST, about 100 μL each of the M701 monoclonal antibodies and the control antibodies were added to each well, and were incubated at room temperature for 1 hour. After washing 5 times with PBST, 100 μL of HRP-anti-human Fc (Sino Biological) was added to each well, and was incubated at room temperature for 1 hour. After washing 5 times with PBST, 100 μL of colorimetric substrate TMB was added to each well, and color was developed at room temperature for 10 minutes, followed by addition of 1M sulfuric acid to terminate the reaction. OD450 nm was recorded on a microplate reader.

LT-α [3] = molecular target: T3, LT-α (UniProt P01374 35-205); assay: ELISA, coated LT-α, Ab 1.563 nM
T3 sequence (looked up): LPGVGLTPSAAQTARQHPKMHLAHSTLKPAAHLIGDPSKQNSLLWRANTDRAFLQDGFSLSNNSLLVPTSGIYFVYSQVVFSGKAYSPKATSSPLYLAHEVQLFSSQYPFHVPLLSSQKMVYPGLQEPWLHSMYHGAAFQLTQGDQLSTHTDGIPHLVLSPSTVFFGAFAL
Protocol: as §1

FASL [4] = molecular target: T4, FASL (UniProt P48023 134-281, limits assumed); assay: ELISA, coated FASL, Ab 25 nM
T4 sequence (looked up): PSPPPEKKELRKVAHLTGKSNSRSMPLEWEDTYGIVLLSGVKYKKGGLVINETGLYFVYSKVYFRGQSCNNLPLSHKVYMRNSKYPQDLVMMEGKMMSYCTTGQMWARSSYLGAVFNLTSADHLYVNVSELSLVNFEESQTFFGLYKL
Protocol: as §1

TNFα [5] = molecular target: T5, TNFα (UniProt P01375 77-233); assay: ELISA, coated TNF-α, Ab 0.000 nM (blank)
T5 sequence (P01375 77-233 limits assumed): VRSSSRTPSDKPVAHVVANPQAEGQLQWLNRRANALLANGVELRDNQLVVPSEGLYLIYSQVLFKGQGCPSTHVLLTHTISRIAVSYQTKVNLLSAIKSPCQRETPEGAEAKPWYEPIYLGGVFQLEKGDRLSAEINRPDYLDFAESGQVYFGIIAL
Protocol: as §1

LT-α [6] = molecular target: T3, LT-α; assay: ELISA, coated LT-α, Ab 25 nM
Protocol: as §1

FASL [7] = molecular target: T4, FASL; assay: ELISA, coated FASL
Protocol: as §1

LT-α [8] = molecular target: T3, LT-α; assay: ELISA, coated LT-α, Ab 0.391 nM
Protocol: as §1

LIGHT [9] = molecular target: T2, LIGHT; assay: ELISA, coated LIGHT, Ab 1.563 nM
Protocol: as §1

TNFα [10] = molecular target: T5, TNFα; assay: ELISA, coated TNF-α, Ab 1.563 nM
Protocol: as §1

FASL [11] = molecular target: T4, FASL; assay: ELISA, coated FASL, Ab 1.563 nM
Protocol: as §1

LT-α [12] = molecular target: T3, LT-α; assay: ELISA, coated LT-α, Ab 6.25 nM
Protocol: as §1

TNFα [13] = molecular target: T5, TNFα; assay: ELISA, coated TNF-α, Ab 25 nM
Protocol: as §1

human TL1A (HuTL1A) [14] = molecular target: T1, human TL1A (HuTL1A); assay: ELISA: biotin-HuTL1A on streptavidin plate, antibody diluted at pH 7.4, HRP-anti-human Fc, OD450
Protocol: (§2) Corresponding antibodies were added to specific wells, and the antibodies were diluted with sodium dihydrogen phosphate-citrate buffer at pH 7.4, pH 6.0, pH 5.8, or pH 5.6. Binding assay was carried out at room temperature for 30 minutes. After the incubation, the excess antibodies were removed and the wells were washed by PBST. HRP-anti-Human Fc (Sino Biological) was then added into each well and incubated for 30 minutes to detect the bound antibody. The substrate TMB was finally added to develop color for 5-10 minutes. The color development reaction was terminated with 1M sulfuric acid. OD450 nm was recorded on a microplate reader, and the data were processed and fitted by 4 parameter logistic regression.

FASL [15] = molecular target: T4, FASL; assay: ELISA, coated FASL, Ab 0.391 nM
Protocol: as §1

human TL1A (HuTL1A) [16] = molecular target: T1, human TL1A (HuTL1A); assay: ELISA: biotin-HuTL1A on streptavidin plate, antibody diluted at pH 5.8, HRP-anti-human Fc, OD450
Protocol: as §2

[17] = molecular target: T6, endogenous TL1A induced in PBMC by immune complexes (UniProt O95150 72-251, limits assumed); assay: cell-based or functional assay
T6 sequence (looked up): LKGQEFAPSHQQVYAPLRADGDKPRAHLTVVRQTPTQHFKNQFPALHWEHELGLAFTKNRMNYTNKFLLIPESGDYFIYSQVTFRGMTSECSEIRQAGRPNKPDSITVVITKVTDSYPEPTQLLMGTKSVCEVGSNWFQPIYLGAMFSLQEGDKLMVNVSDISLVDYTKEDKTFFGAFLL

B1: M701-3966 (antibody, human IgG1, kappa, L234A L235A, V domains shown)
VH: ELQLQESGPGLVKPSETLSLTCAVSGVSFSDYHWAWIRQPPGKGLEWIGDINHRGHTNYNPSLKSRVTVSIDTSKNQFSLKLSSVTAADTAVYFCARDFPNFIFDYWGQGTLVTVSS
VL: DIQLTQSPGTLSLSPGERATLSCRASQSVSSYLAWYQQKPGQAPRLLIYGASKRATGIPDRFSGSGSGTDFTLTISRLEPEDFAVYYCQQYGDSPLTFGQGTKVEIKR
notes: Fc-engineered IgG1
Q: For B1, which “IC50 (read off the curve); IFN-γ of human T cells with IL-12, IL-18 and exogenous human TL1A” value (human TL1A (HuTL1A) [1]) is on record?
A: ~0.3 nM

Q: Does B1 bind (LIGHT [2])?
A: no binding (tested: 100 nM)

Q: And the OD450 nm (LT-α [3])?
A: 0.0651

Q: What about the OD450 nm (FASL [4]) of the same binder?
A: 0.0662

Q: What about the OD450 nm (TNFα [5]) of the same binder?
A: 0.0706

Q: And the OD450 nm (LT-α [6])?
A: 0.0639

Q: Does B1 bind (FASL [7])?
A: no binding (tested: 100 nM)

Q: And the OD450 nm (LT-α [8])?
A: 0.0604

Q: And the OD450 nm (LIGHT [9])?
A: 0.0573

Q: What about the OD450 nm (TNFα [10]) of the same binder?
A: 0.0528

Q: What about the OD450 nm (FASL [11]) of the same binder?
A: 0.0522

Q: And the OD450 nm (LT-α [12])?
A: 0.06

Q: And the OD450 nm (TNFα [13])?
A: 0.0593

Q: And the “EC50 (read off the curve)” value (human TL1A (HuTL1A) [14])?
A: ~0.1 nM

Q: And the OD450 nm (FASL [15])?
A: 0.0504

B2: M701-4007 (antibody, human IgG1, kappa, L234A L235A, V domains shown)
VH: B1 VH with Y106F
VL: B1 VL with S31T
notes: Fc-engineered IgG1
Q: B2 was tested. Which “IC50 (read off the curve); IFN-γ of human T cells with IL-12, IL-18 and exogenous human TL1A” value (human TL1A (HuTL1A) [1]) did it give?
A: ~0.2 nM

Q: Does B2 bind (LIGHT [2])?
A: no binding (tested: 100 nM)

Q: What about the OD450 nm (LT-α [3]) of the same binder?
A: 0.0625

Q: And the OD450 nm (FASL [4])?
A: 0.0634

Q: What about the OD450 nm (TNFα [5]) of the same binder?
A: 0.0762

Q: And the OD450 nm (LT-α [6])?
A: 0.0628

Q: Does B2 bind (FASL [7])?
A: no binding (tested: 100 nM)

Q: And the OD450 nm (LT-α [8])?
A: 0.0576

Q: And the “EC50 (read off the curve)” value (human TL1A (HuTL1A) [16])?
A: ~0.7 nM

Q: What about the “IC50 (read off the curve); IFN-γ of PBMC stimulated with immune complex, IL-12 and IL-18” value [17] of the same binder?
A: ~0.5 nM

Q: What about the OD450 nm (LIGHT [9]) of the same binder?
A: 0.0568

Q: And the OD450 nm (TNFα [10])?
A: 0.0588

Q: What about the OD450 nm (FASL [11]) of the same binder?
A: 0.06

Q: And the OD450 nm (LT-α [12])?
A: 0.0588

Q: What about the OD450 nm (TNFα [13]) of the same binder?
A: 0.0665

Q: What about the “EC50 (read off the curve)” value (human TL1A (HuTL1A) [14]) of the same binder?
A: ~0.1 nM

Q: And the OD450 nm (FASL [15])?
A: 0.0504
